Ends that are not written are not given here.
Target: T1, HveA(200t) (UniProt Q92956 39-200, limits assumed)
T1 construct: Immobilized on microtiter wells in all ELISAs; also called soluble form of HveA; HVEM; not shown: C-terminal histidine tag
T1 sequence (looked up): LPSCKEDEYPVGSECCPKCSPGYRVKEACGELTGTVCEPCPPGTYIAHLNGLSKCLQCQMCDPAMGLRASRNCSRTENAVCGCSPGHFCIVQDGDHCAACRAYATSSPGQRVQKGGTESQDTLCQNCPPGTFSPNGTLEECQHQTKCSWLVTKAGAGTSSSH
Experiment: inferred from competition ELISA on immobilized HveA

B1: BP-2 (3, 9 Ala) (peptide)
peptide: GSADGFRVAYMH
modifications: not fully specified (C-terminus)
notes: Linear analog of BP-2 in which the two cysteine residues are replaced by alanine; also called linear form of BP-2
  binding result: no binding

Reference: US20020119165A1 (University of Pennsylvania, published 2002)
